Bridge positions count the residues as written; N and C are the ends. Ends that are not written are not given here. * marks the point of attachment. Acm = CC(=O)NC*
What was measured:
[1] = biological target: T1, HveA (200t) (Homo sapiens, UniProt Q92956); experiment: competition ELISA, gD-1(306t) binding with immobilized HveA (200t); settings: for inhibitory effect upon binding of gD-1 with HveA: FIG. 4C; for inhibition of binding of soluble wild type gD-1(306t) with immobilized HveA (200t): peptide at 0.5 millimolar, FIG. 4A
T1 sequence (Q92956 39-202 limits assumed): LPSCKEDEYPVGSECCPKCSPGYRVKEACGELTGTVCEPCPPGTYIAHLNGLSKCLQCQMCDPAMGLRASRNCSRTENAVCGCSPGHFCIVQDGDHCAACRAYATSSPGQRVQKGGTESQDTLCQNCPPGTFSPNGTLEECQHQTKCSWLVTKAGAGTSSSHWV
Description: (§1) Several ELISAs were performed to analyze interaction among HveA, the isolated phage peptides, gD, and LT-α. In these assays, microtiter wells were coated for 2 hours at 22° C. with 40 nanograms of HveA(200t), human factor H, trout complement C3, BSA, milk, or ovalbumin. Nonspecific binding in the wells was blocked using PBS containing 1% (w/v) BSA for 1 hour at 22° C. For competition assays, serial dilutions of gD-1 (306t), gD-1 (Δ290-299t), BSA, peptide BP-1, BP-2, or an unrelated cyclic peptide having the amino acid sequence ICVVQDWGHHRCT (SEQ ID NO:3) was added to each well. After 30 minutes of incubation at 22° C., recombinant protein (i.e., gD-1 (306t) at 0.4 microgram per milliliter, gD-1 (Δ290-299t) at 0.1 microgram per milliliter, or LT-α at 20 nanomolar), or phage supernatant was added to the well, and the samples were incubated for 1 hour. The wells were washed twice with PBS containing 0.05% (v/v) Tween-20 and incubated for one hour at 22° C. with at least one of the following: (i) a 1:1000 dilution of a peroxidase-labeled anti-M13 antibody, (ii) a 1:400 dilution of an anti-gD polyclonal antibody (R7), or (iii) an anti-LT-α monoclonal antibody (AG9).
(§2) Following incubation with the antibody, the wells were washed twice with PBS containing 0.05% (v/v) Tween-20 and incubated for 30 minutes at 22° C. with a 1:1000 dilution of a peroxidase-conjugated goat anti-rabbit immunoglobulin G (for polyclonal antibody detection) or with goat anti-mouse immunoglobulin G (for monoclonal antibody detection; Bio-Rad Laboratories, Richmond, Calif.). Color was developed by adding 2,2′-azino-di-(3-ethylbenzthiazolinesulfonate) (ABTS, Boehringer-Mannheim, Indianapolis, Ind.) and 0.5% (v/v) hydrogen peroxide. Absorbance was assessed at 405 nanometers. Net gD-1 or LT-α binding was calculated by subtracting the amount of secondary antibody bound with HveA from the amount of ligand bound with HveA.

[2] = system: HSV entry into Vero cells; experiment: HSV entry assay, Vero cells; type: cell-based, HSV-1; settings: KOS-hrR3 virus; FIG. 7B
Description: (§3) CHO-HveA, CHO-HveC, and Vero cells were plated on 96-well dishes and incubated overnight. The cells were chilled at 4° C. for 10, minutes and then the medium was replaced with Ham's F-12 (CHO-HveA and CHO-HveC cells) or with Dulbecco's modified Eagle medium (DMEM) (Vero cells). These media were supplemented with 10% (v/v) bovine fetal serum and 10 millimolar HEPES, containing various concentrations of peptide, which had been previously filtered through a 0.2 micrometer pore size filter (Corning Glass Works, Corning, N.Y.). The plates were rocked at 4° C. for 90 minutes, at which time KOS-hrR3 virus (5×10^5 PFU/well) was added. The plates were rocked at 4° C. for 90 additional minutes and then incubated at 37° C. for 5 hours. Cells were lysed using 20% (v/v) Nonidet P-40 and β-galactosidase substrate (o-nitrophenyl-β-D-glucopyranoside) was added to each well. β-galactosidase activity was measured at selected time points using a Specromax 250 enzyme-linked immunosorbent assay (ELISA) reader.
(§4) Inhibition of gD-1 binding with HveA mediated by BP-2, as indicated in FIGS. 4A-4C, raised the question of whether this peptide has a blocking effect on viral entry into mammalian cells. […]

[3] = biological target: T1, HveA (200t); experiment: competition ELISA, binding of phage displaying BP-1 or BP-2 with HveA
Description: as §1, §2
The results of these experiments are depicted in FIG. 1A.

[4] = system: HSV entry into CHO-HveC cells; experiment: HSV entry assay, CHO-HveC cells; type: cell-based, HSV-1; settings: KOS-hrR3 virus
Description: as §3, §4

[5] = system: HSV-1 entry into CHO-HveA cells; experiment: HSV entry assay, CHO-HveA cells (β-galactosidase reporter virus KOS-hrR3); type: cell-based; settings: FIG. 7A
Description: as §3
Inhibition of gD-1 binding with HveA mediated by BP-2, as indicated in FIGS. 4A-4C, raised the question of whether this peptide has a blocking effect on viral entry into mammalian cells. To test this possibility, the effect of BP-2 and related peptides (i.e., BP-1, BP-2 (3, 9 Ala), scrambled BP-2, control peptide, and gD-1(Δ290-299t)) on HSV-1 entry into CHO cells expressing either HveA (CHO-HveA cells), or HveC (CHO-HveC cells), and into Vero cells was examined. Cell monolayers were incubated with increasing concentrations of peptide at 4° C. for 90 minutes. Following incubation, the cells were infected with the β-galactosidase reporter virus, KOS-hrR3. The results of these experiments are depicted in FIGS. 7A and 7B.

[6] = biological target: T2, HveA (200t) (Homo sapiens, UniProt Q92956); experiment: competition ELISA, gD-1 (Δ290-299t) binding with HveA; settings: FIG. 4B
T2 sequence (Q92956 39-200): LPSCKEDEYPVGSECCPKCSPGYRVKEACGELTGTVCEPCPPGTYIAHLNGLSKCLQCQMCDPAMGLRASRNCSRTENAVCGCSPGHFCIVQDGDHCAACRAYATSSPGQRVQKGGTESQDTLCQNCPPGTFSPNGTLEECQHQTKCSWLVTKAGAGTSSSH
Description: Several ELISAs were performed to analyze interaction among HveA, the isolated phage peptides, gD, and LT-α. In these assays, microtiter wells were coated for 2 hours at 22° C. with 40 nanograms of HveA(200t), human factor H, trout complement C3, BSA, milk, or ovalbumin. Nonspecific binding in the wells was blocked using PBS containing 1% (w/v) BSA for 1 hour at 22° C. For competition assays, serial dilutions of gD-1 (306t), gD-1 (Δ290-299t), BSA, peptide BP-1, BP-2, or an unrelated cyclic peptide having the amino acid sequence ICVVQDWGHHRCT (SEQ ID NO:3) was added to each well. […]
as §2, with “Color was developed by adding 2,2′-azino-di-(3-ethylbenzthiazolinesulfonate) (ABTS, Boehringer-Mannheim, Indianapolis, Ind.) and 0.5% (v/v) hydrogen peroxide.” left out

## BP-1 (4, 10 Acm): linear BP-1 peptide generated by reduction and alkylation of the 26-mer peptide, SEQ ID NO:1 (SISC(Acm)SRGLVC(Acm)LLPRLTNESGNDRFDS)
[1]
  inhibitory effect upon binding of gD-1 with HveA: no inhibitory effect

## BP-1: cyclic 26-residue HveA-binding peptide, SEQ ID NO:4, from the 27-mer phage library (SISCSRGLVCLLPRLTNESGNDRFDS; disulfide 4-10 (inferred))
[2]
  effect on HSV entry into Vero cells: Neither BP-1 or BP-2 had any effect
[3]; FIG. 3A
  inhibition of binding of phage displaying BP-2 to HveA: vice versa
[4]
  effect on HSV entry into CHO-HveC cells: Neither BP-1 or BP-2 had any effect
[1]
  inhibition of binding of soluble wild type gD-1(306t) with immobilized HveA (200t): 20%
[5]
  blocking of HSV-1 entry into CHO-HveA cells: neither BP-1 nor any of the BP-2 analogs blocked virus entry

## BP-2 (3, 9 Ala): linear form of BP-2 generated by substitution of the cysteine residues with alanine, SEQ ID NO:2 (GSADGFRVAYMH; Peptide corresponds to BP-2 (3,9 Ala))
[1]
  inhibitory effect upon binding of gD-1 with HveA: no inhibitory effect

## BP-2: cyclic 12-residue HveA-binding peptide, SEQ ID NO:5, from the 12-mer phage library (GSCDGFRVCYMH; disulfide 3-9 (inferred))
[2]
  effect on HSV entry into Vero cells: Neither BP-1 or BP-2 had any effect
[3]; FIG. 3B
  inhibition of binding of phage displaying BP-1 to HveA: inhibited
[4]
  effect on HSV entry into CHO-HveC cells: Neither BP-1 or BP-2 had any effect
[6]
  inhibition of binding of gD-1 (Δ290-299t) with HveA: 40%
[1]
  inhibition of binding of soluble wild type gD-1(306t) with immobilized HveA (200t): 80%
[5]
  blocking of HSV-1 entry into CHO-HveA cells: blocked entry

## ICVVQDWGHHRCT [cyclic control peptide, reference compound]
[1]
  inhibitory effect upon binding of gD-1 with HveA: no inhibitory effect

## scrambled sequence BP-2: scrambled primary sequence of the parental cyclic BP-2, maintaining the position of the two cysteines, SEQ ID NO:6 (YMCRFVDGCHGS; disulfide 3-9 (inferred))
[1]
  inhibitory effect upon binding of gD-1 with HveA: no inhibitory effect

B1: gD-1 (306t): soluble wild type HSV glycoprotein D, from recombinant baculovirus-infected cells (protein)
chain: KYALVDASLKMADPNRFRGKDLPVLDQLTDPPGVRRVYHIQAGLPDPFQPPSLPITVYYAVLERACRSVLLNAPSEAPQIVRGASEDVRKQPYNLTIAWFRMGGNCAIPITVMEYTECSYNKSLGACPIRTQPRWNYYDSFSAVSEDNLGFLMHAPAFETAGTYLRLVKINDWTEITQFILEHRAKGSCKYALPLRIPPSACLSPQAYQQGVTVDSIGMLPRFIPENQRTVAVYSLKIAGWHGPKAPYTSTLLPPELSETPNATQPELAPEDPEDSALLEDPVGTVAPQIPPNWHIPSIQDAATPY
modifications: left off: small tags and cut ends
notes: soluble wild type HSV glycoprotein D, from recombinant baculovirus-infected cells
[3]; fluid-phase soluble competitor, FIG. 1A
  inhibition of HveA-binding phage clones binding with HveA (200t): significantly inhibited
[5]
  blocking of HSV-1 entry into CHO-HveA cells: failed to do so

Source: US6699481B2, “Peptides for inhibition of herpes simplex virus entry” (priority 1998, dated 2004)
